# Data: the supplement of paper PMC10126150
# ± gives the standard deviation of the averaged measurements.
# System: ATP
# Test: switch fluorescence ratio, 500 uM ATP over buffer (Cy3 cluster intensity, sum of 5 cycles each) (fold (ratio)); higher = stronger signal-on switching upon ATP binding; sequences stand for … in TCGTCGGCAGCGTCAGATGTGTATAAGAGACAGTTTTTTTTTTTTTTTTTTTTTTTTT…TC
# Settings: aptamer strand: ATP DNA aptamer (quencher-CACCTGGGGGAGTATTGCGGAGGAAGG + anchor), 100 nM annealed; ATP concentration: 500 uM
# How it was run: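 Values give the fluorescence ratio for each switch-domain sequence, averaged from per-cluster ratios of summed target-cycle to summed buffer-cycle Cy3 intensity. The Cy3-labelled switching-strand clusters sat on a modified Illumina MiSeq flow-cell, were annealed to 100 nM quencher-labelled ATP aptamer, and were imaged in selection buffer, then after 15 min with 500 uM ATP at 22 °C. Five cycles ran with NaOH stripping and re-annealing between them, and clusters outside 100-1000 RFU were excluded.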
# 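Note: ATP exposure 15 min at 22 °C before imaging.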
row,Sequence,switch fluorescence ratio
1,AGCATACAAA,0.98 ± 0.012
2,AGCATAGTCG,1.04 ± 0.029
3,AGCATCATTT,0.971 ± 0.024
4,AGCATGTGGT,1 ± 0.026
5,AGCATTAATT,0.988 ± 0.043
6,AGCATTACGT,2.02 ± 0.089
7,AGCATTGTGG,0.996 ± 0.018
8,AGCATTTTTC,1.02 ± 0.028
9,AGCCAGGGGG,1.03 ± 0.043
10,AGCCCTGGCG,0.9504 ± 0.0071
11,AGCCGAGTGC,1.02 ± 0.06
12,AGCCGGGGGA,1.05 ± 0.071
13,AGCCTCCGGT,1.13 ± 0.073
14,AGCCTTTGTC,0.982 ± 0.041
15,AGCGAAATCT,1.08 ± 0.03
16,AGCGAACGGG,1.05 ± 0.025
17,AGCGACCCGG,1.08 ± 0.033
18,AGCGAGGTCT,0.977 ± 0.027
19,AGCGCTTATG,1 ± 0.022
20,AGCGGATCGG,0.991 ± 0.02
21,AGCGGGGATA,1.05 ± 0.024
22,AGCGGGGGGG,1.02 ± 0.036
23,AGCGGGTTTC,1.02 ± 0.015
24,AGCGTAGTGG,1.027 ± 0.0061
25,AGCGTATGCA,1.02 ± 0.024

row,Sequence,switch fluorescence ratio
1,AGCGTGATAC,4.4 ± 0.36
2,AGCGTTGAAG,0.997 ± 0.022
3,AGCGTTGAGT,0.985 ± 0.032
4,AGCTAATTCG,1.03 ± 0.045
5,AGCTAGCAG,1.042 ± 0.0036
6,AGCTAGCAGG,0.974 ± 0.039
7,AGCTAGGGGA,1.08 ± 0.077
8,AGCTAGTATG,0.993 ± 0.016
9,AGCTATGCGC,0.963 ± 0.056
10,AGCTATGTTT,0.979 ± 0.04
11,AGCTATTGGG,0.975 ± 0.045
12,AGCTCATCGC,1.05 ± 0.023
13,AGCTCCTCAT,1.1 ± 0.03
14,AGCTCGACGC,1.19 ± 0.064
15,AGCTCGGGTA,0.998 ± 0.025
16,AGCTCTGCTA,1.02 ± 0.02
17,AGCTGAAGCC,1.03 ± 0.028
18,AGCTGAAGTG,0.972 ± 0.018
19,AGCTGACAGT,0.981 ± 0.0044
20,AGCTGAGGGA,1.015 ± 0.0066
21,AGCTGATGGG,1.01 ± 0.014
22,AGCTGCTACG,0.996 ± 0.027
23,AGCTGGATGC,1.04 ± 0.036
24,AGCTGGCAGC,1.009 ± 0.0012
25,AGCTGGCTAA,0.967 ± 0.014

row,Sequence,switch fluorescence ratio
1,AGCTGTAGTT,1 ± 0.034
2,AGCTTACTGT,1.08 ± 0.019
3,AGCTTATGTC,0.935 ± 0.057
4,AGCTTCGGAC,1.35 ± 0.12
5,AGCTTCGTTC,1.014 ± 0.0052
6,AGCTTTAGTT,1.008 ± 0.0019
7,AGCTTTGGGT,1.01 ± 0.016
8,AGGAAAAAAA,2.85 ± 2.6
9,AGGAACATTA,1.01 ± 0.054
10,AGGAAGAGGC,1.08 ± 0.18
11,AGGAAGCAGT,1.018 ± 0.0085
12,AGGAAGCTCT,1.03 ± 0.023
13,AGGAAGGCA,0.975 ± 0.05
14,AGGAATAAA,0.976 ± 0.052
15,AGGAATATAC,1.11 ± 0.066
16,AGGAATCCGT,1.03 ± 0.022
17,AGGAATGGCT,0.985 ± 0.017
18,AGGAATGTTA,1.03 ± 0.018
19,AGGAATTGGA,1.01 ± 0.1
20,AGGAATTTTT,0.968 ± 0.018
21,AGGACAGCAT,1.07 ± 0.023
22,AGGACGGCCA,0.998 ± 0.021
23,AGGACGGGGG,1.02 ± 0.033
24,AGGACTTGAA,1.02 ± 0.035
25,AGGAGAAAAT,1.04 ± 0.028

row,Sequence,switch fluorescence ratio
1,AGGAGACGAA,0.985 ± 0.031
2,AGGAGAGGTG,1.102 ± 0.002
3,AGGAGATGGG,1.02 ± 0.034
4,AGGAGGAAGG,1.05 ± 0.086
5,AGGAGGACGT,0.964 ± 0.06
6,AGGAGGGCGT,0.969 ± 0.018
7,AGGAGGGTAG,1 ± 0.021
8,AGGAGGGTGG,1.02 ± 0.044
9,AGGAGGTATG,0.976 ± 0.027
10,AGGAGGTGGT,1.04 ± 0.015
11,AGGAGGTTCC,1.02 ± 0.061
12,AGGAGTATGA,1.03 ± 0.029
13,AGGAGTCTAT,0.9774 ± 0.0094
14,AGGAGTGCCA,1.017 ± 0.0093
15,AGGAGTGTCA,0.965 ± 0.013
16,AGGAGTGTGG,1.01 ± 0.031
17,AGGAGTTATG,1.015 ± 0.0046
18,AGGATAAAGT,0.9875 ± 0.0077
19,AGGATAGTGT,0.985 ± 0.036
20,AGGATCGACG,0.925 ± 0.013
21,AGGATGATGC,0.979 ± 0.026
22,AGGATGCTCA,1.01 ± 0.011
23,AGGATGGTGA,0.968 ± 0.015
24,AGGATGGTTA,0.968 ± 0.076
25,AGGATGTAAA,1.025 ± 0.0045

row,Sequence,switch fluorescence ratio
1,AGGATTGGTT,1 ± 0.025
2,AGGCAAAAAT,1.008 ± 0.004
3,AGGCAAAGTT,0.989 ± 0.026
4,AGGCAACCAA,1.02 ± 0.017
5,AGGCACGTGT,1.02 ± 0.015
6,AGGCAGAATC,1.01 ± 0.037
7,AGGCAGCTGT,1.01 ± 0.018
8,AGGCAGGCCA,1.17 ± 0.056
9,AGGCAGGGAT,1.01 ± 0.057
10,AGGCAGGTAC,1.246 ± 0.0051
11,AGGCAGGTTG,0.985 ± 0.019
12,AGGCATAAGG,0.9897 ± 0.0077
13,AGGCATTGGC,0.997 ± 0.048
14,AGGCATTTTA,0.983 ± 0.053
15,AGGCCCGTGT,0.98 ± 0.068
16,AGGCCCTTTA,1.12 ± 0.17
17,AGGCCGGAAG,0.9945 ± 0.0095
18,AGGCCGTAGG,0.937 ± 0.048
19,AGGCCTGAAA,0.983 ± 0.07
20,AGGCCTGAGC,1 ± 0.025
21,AGGCCTTGTT,0.974 ± 0.019
22,AGGCGAGGAT,1.012 ± 0.0075
23,AGGCGATCTG,1.01 ± 0.041
24,AGGCGCAGGT,1.01 ± 0.021
25,AGGCGCCTGT,1.02 ± 0.017

row,Sequence,switch fluorescence ratio
1,AGGCGCTCTG,0.99 ± 0.0045
2,AGGCGGACGT,1 ± 0.0089
3,AGGCGGGGAG,1.02 ± 0.026
4,AGGCGGGGCG,1.02 ± 0.022
5,AGGCGTAAGG,1.03 ± 0.015
6,AGGCTCATGG,1.028 ± 0.0089
7,AGGCTGGGGG,0.996 ± 0.013
8,AGGCTGGTCT,0.952 ± 0.1
9,AGGCTTTCTC,1.14 ± 0.11
10,AGGCTTTGG,0.999 ± 0.051
11,AGGGAAAAAC,2.45 ± 2
12,AGGGAAAAAG,1.02 ± 0.045
13,AGGGAAAGTT,1.01 ± 0.024
14,AGGGAAGCT,1.05 ± 0.015
15,AGGGAAGGAT,1.01 ± 0.047
16,AGGGAAGGGG,1.1 ± 0.17
17,AGGGAATGTG,0.987 ± 0.034
18,AGGGACAGAC,1.17 ± 0.054
19,AGGGACGTAG,1.05 ± 0.026
20,AGGGACTTGG,1 ± 0.047
21,AGGGACTTGT,1 ± 0.03
22,AGGGAGAACG,0.961 ± 0.047
23,AGGGAGAAGT,0.9853 ± 0.002
24,AGGGAGGAGG,0.971 ± 0.024
25,AGGGAGGCCG,0.98 ± 0.11

row,Sequence,switch fluorescence ratio
1,AGGGAGGGAT,1.01 ± 0.027
2,AGGGAGGGTT,1 ± 0.039
3,AGGGAGTGCT,1.02 ± 0.013
4,AGGGAGTTAA,0.973 ± 0.054
5,AGGGAGTTCG,0.977 ± 0.03
6,AGGGATGTAA,0.992 ± 0.012
7,AGGGATTCCG,1 ± 0.032
8,AGGGATTGAT,1.01 ± 0.059
9,AGGGATTGC,0.973 ± 0.027
10,AGGGATTTAA,0.988 ± 0.022
11,AGGGATTTGG,0.987 ± 0.014
12,AGGGCAACCG,1.04 ± 0.028
13,AGGGCAAGGA,1.11 ± 0.16
14,AGGGCAGAGA,1.02 ± 0.046
15,AGGGCATTCG,0.979 ± 0.026
16,AGGGCATTGA,1.01 ± 0.022
17,AGGGCCCCGG,1.03 ± 0.023
18,AGGGCCCCTG,0.9941 ± 0.0044
19,AGGGCGACG,1.05 ± 0.079
20,AGGGCGACGC,0.912 ± 0.025
21,AGGGCGGGGT,1.02 ± 0.033
22,AGGGCGTTGT,0.969 ± 0.035
23,AGGGCTACAG,1.013 ± 0.0054
24,AGGGCTGTTC,1.063 ± 0.0045
25,AGGGCTTTTG,1 ± 0.063

row,Sequence,switch fluorescence ratio
1,AGGGGAAAAT,0.996 ± 0.028
2,AGGGGAAACA,1.01 ± 0.031
3,AGGGGAAAGA,1.02 ± 0.04
4,AGGGGAAGAA,1 ± 0.019
5,AGGGGAATTG,0.955 ± 0.021
6,AGGGGACGGG,1.05 ± 0.037
7,AGGGGAGAGT,1 ± 0.014
8,AGGGGAGCGT,1.015 ± 0.0064
9,AGGGGAGGCT,0.997 ± 0.045
10,AGGGGAGGGT,1 ± 0.015
11,AGGGGATAAG,0.992 ± 0.029
12,AGGGGATCAT,0.981 ± 0.029
13,AGGGGATTAT,0.998 ± 0.038
14,AGGGGCACAA,1.01 ± 0.024
15,AGGGGCAGGG,0.932 ± 0.081
16,AGGGGCAGTA,0.993 ± 0.032
17,AGGGGCGTAC,1.07 ± 0.022
18,AGGGGCTATT,1.01 ± 0.014
19,AGGGGGACAC,1 ± 0.028
20,AGGGGGAGTT,0.979 ± 0.025
21,AGGGGGATAG,0.967 ± 0.052
22,AGGGGGATCT,1.03 ± 0.04
23,AGGGGGATTT,0.999 ± 0.052
24,AGGGGGCAGG,1.01 ± 0.017
25,AGGGGGCCTG,0.992 ± 0.01
